Measured values: patent US20060167238, “Gene expression using metal ion dependent repressor/operator tandems” (ADVANCED MICROBIAL SOLUTIONS CORPORATION, published 2006)

T1: DtxR (Corynebacterium diphtheriae, UniProt P0DJL7 P0DJL7:1-226)
T1 sequence: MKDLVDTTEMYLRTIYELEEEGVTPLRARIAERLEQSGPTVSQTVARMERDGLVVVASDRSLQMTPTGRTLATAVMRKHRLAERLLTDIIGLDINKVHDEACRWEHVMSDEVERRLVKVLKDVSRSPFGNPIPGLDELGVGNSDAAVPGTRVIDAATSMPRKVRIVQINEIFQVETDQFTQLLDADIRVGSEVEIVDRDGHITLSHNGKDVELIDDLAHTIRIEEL

T2: SirR (UniProt Q5HRA0 Q5HRA0:1-214)
T2 sequence: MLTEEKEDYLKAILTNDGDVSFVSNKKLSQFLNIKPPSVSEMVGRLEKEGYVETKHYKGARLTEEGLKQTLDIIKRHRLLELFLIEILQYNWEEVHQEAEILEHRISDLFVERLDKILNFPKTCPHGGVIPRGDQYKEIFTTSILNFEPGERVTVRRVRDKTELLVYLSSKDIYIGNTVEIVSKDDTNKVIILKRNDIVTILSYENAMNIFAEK

B1: tacPtoxO hybrid promoter/operator (dsDNA)
DNA 1: CCCTGTTGACAATTAATCACCGGTACCTATAATTAGGATAGCTTTACCTAATTATTTTACACCC
DNA 2: GGGTGTAAAATAATTAGGTAAAGCTATCCTAATTATAGGTACCGGTGATTAATTGTCAACAGGG
B2: tacP (dsDNA)
DNA 1: CCCTGTTGACAATTAATCATCGGCTCGTATAATGTGTGGAATTGTGAGCGGATAACAATTTCA
DNA 2: TGAAATTGTTATCCGCTCACAATTCCACACATTATACGAGCCGATGATTAATTGTCAACAGGG
B3: efaABC promoter/operator (efa box) (dsDNA)
DNA 1: TTTTCTTAAACTATCCCTTATACTGATTTTAAGGCAAACCTAAAAA
DNA 2: TTTTTAGGTTTGCCTTAAAATCAGTATAAGGGATAGTTTAAGAAAA
B4: sitABC box (dsDNA)
DNA 1: AACTTGACATGTTAAAACTTTAGAGTATATTATAAAATAAATTAGGTTAACCTAAACTTTTTATTAGGAGG
DNA 2: CCTCCTAATAAAAAGTTTAGGTTAACCTAATTTATTTTATAATATACTCTAAAGTTTTAACATGTCAAGTT

Tests used:
Test in all cases: EMSA
DtxR = target: T1, DtxR; conditions: chain copies: 4
EfaR = EfaR (Enterococcus faecalis, UniProt Q93CH5 Q93CH5:1-222); conditions: tags: untagged (pQN vector); label: 32P
SirR = target: T2, SirR

Binder	binding result (DtxR)	further results
B1	binds	–
B2	no binding	–
B3	–	binding result (EfaR): binds
B4	–	binding result (SirR): binds
